The record followed here is US5770430, “Cellular injury response element and uses thereof” (Research Development Foundation).

The data set concerns the target Sp1 (Homo sapiens, UniProt P08047 P08047:2-785). The data set is described as follows: EMSA; poly dI/dC, Mg, Zn, room temperature. Particulars: label: 32P. The protocol:
50,000 CPM of the cellular injury response element, 1 μg poly dI/dC, 10 μg nuclear extract or 2 footprinting units of human Sp1 protein (Promega, Madison, Wis.) were suspended in 12.5 mM HEPES, pH 7.8, 50 mM KCl, 6.25 mM MgCl_2, 5 μM ZnSO_4, 10% glycerol, and 0.05% Nonidet P-40 and incubated for 30 minutes at room temperature. The bands were separated on a 4% polyacrylamide/0.5 X TBE (45 mM Tris-borate, […]) gel, dried and were visualized using the Molecular Imager System (Bio-Rad, Hercules, Calif.). Supershift assays were performed as above with the addition of […] anti-Sp1 antibody (PEP2, Santa Cruz Biotechnology, Inc.) or non-specific rabbit antibody to the reaction mixture after the 30 minute incubation and incubating for an additional 30 minutes.
Nuclear extracts were incubated with ^32P-labeled cellular injury response element and separated on a 0.5X TBE/4% polyacrylamide gel. […] However, no shift was observed when nuclear extracts were incubated with the Sp 1-mutant cellular injury response element (labeled A in FIGS. 7 and 8; a non-specifically shifted band is labeled A in both FIGS. 7 and 8). Thus, the binding of the protein responsible for the gel shift of the cellular injury response element is dependent upon the presence of functional Sp1 site within the cellular injury response element.

Chain of Sp1 (P08047 2-785, one chain of several): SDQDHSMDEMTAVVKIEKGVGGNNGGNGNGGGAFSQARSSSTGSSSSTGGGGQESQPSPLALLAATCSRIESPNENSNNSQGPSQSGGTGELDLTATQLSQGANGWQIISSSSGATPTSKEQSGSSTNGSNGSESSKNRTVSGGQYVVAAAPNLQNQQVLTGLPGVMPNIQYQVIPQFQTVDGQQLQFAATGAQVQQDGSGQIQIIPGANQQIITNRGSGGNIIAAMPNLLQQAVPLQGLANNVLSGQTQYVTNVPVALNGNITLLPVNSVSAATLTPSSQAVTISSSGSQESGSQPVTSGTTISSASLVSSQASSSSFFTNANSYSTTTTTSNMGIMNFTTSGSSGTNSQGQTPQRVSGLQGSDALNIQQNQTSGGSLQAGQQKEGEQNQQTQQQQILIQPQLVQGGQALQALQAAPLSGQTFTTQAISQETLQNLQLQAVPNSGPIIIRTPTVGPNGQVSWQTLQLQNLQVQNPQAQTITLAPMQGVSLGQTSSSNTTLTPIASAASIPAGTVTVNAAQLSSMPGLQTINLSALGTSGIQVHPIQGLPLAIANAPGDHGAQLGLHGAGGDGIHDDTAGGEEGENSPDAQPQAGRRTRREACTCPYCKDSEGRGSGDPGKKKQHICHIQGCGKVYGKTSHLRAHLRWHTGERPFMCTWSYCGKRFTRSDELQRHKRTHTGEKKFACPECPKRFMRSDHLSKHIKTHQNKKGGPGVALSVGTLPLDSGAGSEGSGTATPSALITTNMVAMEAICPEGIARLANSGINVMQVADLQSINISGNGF

B1: CIRE (GADD153 -74 to -35) (dsDNA)
DNA 1: AGGCTCCTGGGTCCCGCCCCCCAAAAGAGGGGACGGGCC
DNA 2: GGCCCGTCCCCTCTTTTGGGGGGCGGGACCCAGGAGCCT
For B1, the binding result was “binds”.
